Target: T1, AP2-LT D1 (Plasmodium falciparum, UniProt Q8IAM1 2520-2577)
T1 sequence: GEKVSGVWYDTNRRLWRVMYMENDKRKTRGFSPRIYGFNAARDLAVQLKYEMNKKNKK
Assay: gcPBM; about 25 ug protein; PBS, 1% milk, 0.2 mg/ml BSA, salmon testes DNA, 0.03% Triton X-100
Details: tags: N-terminal GST (pGEX-4T-1), kept; label: surface-attached array probe

B1: CACACA_site4355 (dsDNA)
DNA 1: CACAGACACGGACACACACACACACCCACATATATA
DNA 2: TATATATGTGGGTGTGTGTGTGTGTCCGTGTCTGTG
In the case of B1, the binding signal is reported as 10.7 ln median PBM intensity, better of two orientations.

B2: CACACA_site5272 (dsDNA)
DNA 1: TATACAGATGGACACACACACATATATATATATATA
DNA 2: TATATATATATATATGTGTGTGTGTCCATCTGTATA
For B2, the binding signal was 10.7 ln median PBM intensity, better of two orientations.

B3: CACACA_site5247 (dsDNA)
DNA 1: AGGATATGCGGACACACACACATATATATATATATA
DNA 2: TATATATATATATATGTGTGTGTGTCCGCATATCCT
B3 was tested, and the binding signal was 10.7 ln median PBM intensity, better of two orientations.

B4: CACACA_site906 (dsDNA)
DNA 1: AAAGGATACAGACACACACACACATATATATATATA
DNA 2: TATATATATATATGTGTGTGTGTGTCTGTATCCTTT
In the case of B4, the binding signal is reported as 10.7 ln median PBM intensity, better of two orientations.

B5: CACACA_site3654 (dsDNA)
DNA 1: AAAAAACAAAAACACACACACACATATATATATATA
DNA 2: TATATATATATATGTGTGTGTGTGTTTTTGTTTTTT
In the case of B5, the binding signal is reported as 10.7 ln median PBM intensity, better of two orientations.

B6: CACACA_site3589 (dsDNA)
DNA 1: AATAAAAAGAAACACACACACACACCCATATATATA
DNA 2: TATATATATGGGTGTGTGTGTGTGTTTCTTTTTATT
For B6, the binding signal was 10.7 ln median PBM intensity, better of two orientations.

B7: CACACA_site8001 (dsDNA)
DNA 1: TGGGAGCACAGACACACACACACACCGATATATATA
DNA 2: TATATATATCGGTGTGTGTGTGTGTCTGTGCTCCCA
For B7, the binding signal was 10.6 ln median PBM intensity, better of two orientations.

B8: CACACA_site4352 (dsDNA)
DNA 1: CCCACAGACGGACACACACACACATATATATATATA
DNA 2: TATATATATATATGTGTGTGTGTGTCCGTCTGTGGG
In the case of B8, the binding signal is reported as 10.6 ln median PBM intensity, better of two orientations.

B9: CACACA_site4493 (dsDNA)
DNA 1: GGCATACACGGACACACACACACACCGACATATATA
DNA 2: TATATATGTCGGTGTGTGTGTGTGTCCGTGTATGCC
B9 was tested, and the binding signal was 10.6 ln median PBM intensity, better of two orientations.

B10: CACACA_site499 (dsDNA)
DNA 1: CACCCACCCAGACACACACACACAAAAAAAAAAAGA
DNA 2: TCTTTTTTTTTTTGTGTGTGTGTGTCTGGGTGGGTG
B10 was tested, and the binding signal was 10.6 ln median PBM intensity, better of two orientations.

B11: CACACA_site6473 (dsDNA)
DNA 1: AAAAAAAAAAGACACACACACACACTAATACATACA
DNA 2: TGTATGTATTAGTGTGTGTGTGTGTCTTTTTTTTTT
For B11, the binding signal was 10.6 ln median PBM intensity, better of two orientations.

B12: CACACA_site493 (dsDNA)
DNA 1: AACATACAGAAACACACACACACACCCACACCCACA
DNA 2: TGTGGGTGTGGGTGTGTGTGTGTGTTTCTGTATGTT
With B12 the binding signal was 10.6 ln median PBM intensity, better of two orientations.

B13: CACACA_site5031 (dsDNA)
DNA 1: AGTATACTCGGACACACACACACATATATATATATA
DNA 2: TATATATATATATGTGTGTGTGTGTCCGAGTATACT
With B13 the binding signal was 10.6 ln median PBM intensity, better of two orientations.

B14: CACACA_site453 (dsDNA)
DNA 1: CAAAGACACAAACACACACACACATACATACATACA
DNA 2: TGTATGTATGTATGTGTGTGTGTGTTTGTGTCTTTG
In the case of B14, the binding signal is reported as 10.6 ln median PBM intensity, better of two orientations.

B15: CACACA_site4674 (dsDNA)
DNA 1: CATATAAAAGGACACACACACACATATATATATATA
DNA 2: TATATATATATATGTGTGTGTGTGTCCTTTTATATG
For B15, the binding signal was 10.6 ln median PBM intensity, better of two orientations.

B16: CACACA_site2267 (dsDNA)
DNA 1: AATATAAATAAAAACACACACACACCCATATATATA
DNA 2: TATATATATGGGTGTGTGTGTGTTTTTATTTATATT
B16 was tested, and the binding signal was 10.6 ln median PBM intensity, better of two orientations.

B17: CACACA_site2666 (dsDNA)
DNA 1: AAAAAACACAGACACACACACATATACATACATACA
DNA 2: TGTATGTATGTATATGTGTGTGTGTCTGTGTTTTTT
In the case of B17, the binding signal is reported as 10.6 ln median PBM intensity, better of two orientations.

B18: CACACA_site9255 (dsDNA)
DNA 1: AAAGAAGGTAAACACACACACACACCGACAAAAAAA
DNA 2: TTTTTTTGTCGGTGTGTGTGTGTGTTTACCTTCTTT
In the case of B18, the binding signal is reported as 10.6 ln median PBM intensity, better of two orientations.

B19: CACACA_site8097 (dsDNA)
DNA 1: CATACACCCCAACACACACACACACCCATATATAAT
DNA 2: ATTATATATGGGTGTGTGTGTGTGTTGGGGTGTATG
With B19 the binding signal was 10.6 ln median PBM intensity, better of two orientations.

B20: CACACA_site5873 (dsDNA)
DNA 1: AATAACCACGGACACACACACATATATATATATATA
DNA 2: TATATATATATATATGTGTGTGTGTCCGTGGTTATT
In the case of B20, the binding signal is reported as 10.5 ln median PBM intensity, better of two orientations.

B21: CACACA_site1992 (dsDNA)
DNA 1: TGGGTAAACAAACACACACACATATATATATATATA
DNA 2: TATATATATATATATGTGTGTGTGTTTGTTTACCCA
B21 was tested, and the binding signal was 10.5 ln median PBM intensity, better of two orientations.

B22: CACACA_site8248 (dsDNA)
DNA 1: TGAACTCACGAGCACACACACACATATATATATATA
DNA 2: TATATATATATATGTGTGTGTGTGCTCGTGAGTTCA
For B22, the binding signal was 10.5 ln median PBM intensity, better of two orientations.

B23: CACACA_site5809 (dsDNA)
DNA 1: AACACCCATGGACACACACACATATATATATATATA
DNA 2: TATATATATATATATGTGTGTGTGTCCATGGGTGTT
B23 was tested, and the binding signal was 10.5 ln median PBM intensity, better of two orientations.

B24: CACACA_site7106 (dsDNA)
DNA 1: AAAAAACACGCGCACACACACACACGCGCCCACATA
DNA 2: TATGTGGGCGCGTGTGTGTGTGTGCGCGTGTTTTTT
For B24, the binding signal was 10.5 ln median PBM intensity, better of two orientations.

B25: CACACA_site2920 (dsDNA)
DNA 1: CATACATACAGACACACACACATATATATATATATA
DNA 2: TATATATATATATATGTGTGTGTGTCTGTATGTATG
With B25 the binding signal was 10.4 ln median PBM intensity, better of two orientations.

B26: CACACA_site4437 (dsDNA)
DNA 1: CATATACACGAACACACACACATATATATATATATA
DNA 2: TATATATATATATATGTGTGTGTGTTCGTGTATATG
B26 was tested, and the binding signal was 10.4 ln median PBM intensity, better of two orientations.

B27: CACACA_site481 (dsDNA)
DNA 1: ATAATCCTGAAACACACACACACACCCATAAATAAA
DNA 2: TTTATTTATGGGTGTGTGTGTGTGTTTCAGGATTAT
For B27, the binding signal was 10.4 ln median PBM intensity, better of two orientations.

B28: CACACA_site706 (dsDNA)
DNA 1: AAAAAAAAAAAACACACACACACAAATACATACACA
DNA 2: TGTGTATGTATTTGTGTGTGTGTGTTTTTTTTTTTT
With B28 the binding signal was 10.4 ln median PBM intensity, better of two orientations.

B29: CACACA_site6255 (dsDNA)
DNA 1: TTTATTAATAGACACACACACACACGCAAAATAAAA
DNA 2: TTTTATTTTGCGTGTGTGTGTGTGTCTATTAATAAA
B29 was tested, and the binding signal was 10.4 ln median PBM intensity, better of two orientations.

B30: CACACA_site1020 (dsDNA)
DNA 1: AACAGACGAAGACACACACACATATATATATATATA
DNA 2: TATATATATATATATGTGTGTGTGTCTTCGTCTGTT
B30 was tested, and the binding signal was 10.4 ln median PBM intensity, better of two orientations.

B31: CACACA_site7866 (dsDNA)
DNA 1: GGATATAACAGACACACACACACATATAAATATATT
DNA 2: AATATATTTATATGTGTGTGTGTGTCTGTTATATCC
In the case of B31, the binding signal is reported as 10.4 ln median PBM intensity, better of two orientations.

B32: CACACA_site268 (dsDNA)
DNA 1: AATATAAACCCAAACACACACATATATATATATATA
DNA 2: TATATATATATATATGTGTGTGTTTGGGTTTATATT
For B32, the binding signal was 10.3 ln median PBM intensity, better of two orientations.

B33: CACACA_site4354 (dsDNA)
DNA 1: CACAGACACGGACACACACACACACCCATATATATA
DNA 2: TATATATATGGGTGTGTGTGTGTGTCCGTGTCTGTG
B33 was tested, and the binding signal was 10.3 ln median PBM intensity, better of two orientations.

B34: CACACA_site773 (dsDNA)
DNA 1: TATATATAGAAACACACACACATATATATATATATA
DNA 2: TATATATATATATATGTGTGTGTGTTTCTATATATA
With B34 the binding signal was 10.3 ln median PBM intensity, better of two orientations.

B35: CACACA_site8452 (dsDNA)
DNA 1: AAAAAAAAAAAACATACACACACATATATATATATA
DNA 2: TATATATATATATGTGTGTGTATGTTTTTTTTTTTT
With B35 the binding signal was 10.3 ln median PBM intensity, better of two orientations.

B36: CACACA_site517 (dsDNA)
DNA 1: AATTAACAAAAACACACACACACACCCACAAAAAAA
DNA 2: TTTTTTTGTGGGTGTGTGTGTGTGTTTTTGTTAATT
For B36, the binding signal was 10.3 ln median PBM intensity, better of two orientations.

B37: CACACA_site363 (dsDNA)
DNA 1: CACACCCACAGACACACACACACATATATATATATA
DNA 2: TATATATATATATGTGTGTGTGTGTCTGTGGGTGTG
B37 was tested, and the binding signal was 10.3 ln median PBM intensity, better of two orientations.

B38: CACACA_site6447 (dsDNA)
DNA 1: AATACACGCAGACACACACACACACGCACATATATA
DNA 2: TATATATGTGCGTGTGTGTGTGTGTCTGCGTGTATT
B38 was tested, and the binding signal was 10.3 ln median PBM intensity, better of two orientations.

B39: CACACA_site4314 (dsDNA)
DNA 1: AATAAATAAAGAAGTACACACATATATATATATATA
DNA 2: TATATATATATATATGTGTGTACTTCTTTATTTATT
B39 was tested, and the binding signal was 10.3 ln median PBM intensity, better of two orientations.

B40: CACACA_site905 (dsDNA)
DNA 1: AAAAAGGAGAAACACACACACACACCCATATATATA
DNA 2: TATATATATGGGTGTGTGTGTGTGTTTCTCCTTTTT
B40 was tested, and the binding signal was 10.2 ln median PBM intensity, better of two orientations.

B41: CACACA_site2248 (dsDNA)
DNA 1: TATACATAGAAACACACACACATATATATATATATA
DNA 2: TATATATATATATATGTGTGTGTGTTTCTATGTATA
B41 was tested, and the binding signal was 10.2 ln median PBM intensity, better of two orientations.

B42: CACACA_site6448 (dsDNA)
DNA 1: AAAATACACGCATACACACACACACGCGCACATATA
DNA 2: TATATGTGCGCGTGTGTGTGTGTATGCGTGTATTTT
For B42, the binding signal was 10.2 ln median PBM intensity, better of two orientations.

B43: CACACA_site5250 (dsDNA)
DNA 1: CGCGCCCAGAAACACACACACACACCGATATATATA
DNA 2: TATATATATCGGTGTGTGTGTGTGTTTCTGGGCGCG
B43 was tested, and the binding signal was 10.2 ln median PBM intensity, better of two orientations.

B44: CACACA_site4351 (dsDNA)
DNA 1: CCCACAGACGGACACACACACATATATATATATATA
DNA 2: TATATATATATATATGTGTGTGTGTCCGTCTGTGGG
In the case of B44, the binding signal is reported as 10.2 ln median PBM intensity, better of two orientations.
